Experimental data: the DeepSol protein solubility set

Test: soluble on expression in E. coli; label from the status in PepcDB or PDB records

Sequence | soluble on expression in E. coli
AHHHHHHGSKTLKVYIPGIKFPSISVTGNYCALNCAHCGRHYLEGMKKITRLNLVDKCVEMEKEGYVGCLLSGGMDSRLKVPLDKFKDEIREIKEKTRLKINAHVGFIDEDDLEWLKYIDVVSLDFVGDNEVIKRVYKIDKTVNDYLKILDILTKERIKVAPHITIGLDFGRIHWEYEAIDLLSEYPIDVLVLNILIPTPGTEMENVKVSMEEALNVVRYAREEFKGELSIGCMRPFGRWREEFDKRAILIGVDRITNPPRKVIEWAKQFRKVEIHFECCVI | not soluble
MSNTQHKLDKTRPPRVQITYDVETGDAETAKELPLVIGVLGEYSSSEKPLRERKFISIDKDNFDEVMASMSPTAHFMVDSVIPGNEGKLDVELRFSCKDDFSPDNVIQQVECLRKLSELRLHLCDLRNRAASNEKLKEKLQELLVTTNGNPENDESKE | not soluble
MTVSPVPSPKGRVLIAGATGFIGQFVATASLDAHRPTYILARPGPRSPSKAKIFKALEDKGAIIVYGLINEQEAMEKILKEHEIDIVVSTVGGESILDQIALVKAMKAVGTIKRFLPSEFGHDVNRADPVEPGLNMYREKRRVRQLVEESGIPFTYICCNSIASWPYYNNIHPSEVLPPTDFFQIYGDGNVKAYFVAGTDIGKFTMKTVDDVRTLNKSVHFRPSCNCLNINELASVWEKKIGRTLPRVTVTEDDLLAAAGENIIPQSVVAAFTHDIFIKGCQVNFSIDGPEDVEVTTLYPEDSFRTVEECFGEYIVKMEEKQPTADSAIANTGPVVGMRQVTATCA | soluble
LSDDRYFIFFNQPKTPEESIQLLGAQAGDTESFRVTLDRIPPQIQKLSFTATLDGAGQMSQVAPGYLRIVAGGEEVARYSFTGSEFSTERAVMLGDFYLKDVWRFAAVGQGFDGGLDALLKNFGGEVAEEEPAVPAQTQSGAAPSFAPPAFGAPAAPAPAPAPAPQPAQGFTPPPGPTPPPAPAPAPSVHAAPTIVGPLHTPPGGTVPPPGPAPYAQ | not soluble
MTAANLTEQQRLELEAAAFRTLVHHLQTRKDVQNIDLMNLAGFCRNCLSKWYKAAADDLGVEVSNDQAREEIYGMPYAEWKAKYQKEASPEQQAAFAKSQGNA | not soluble
MAHHHHHHMANIITLKSAWDVDRHIVLDSADKLVLIRFSSYTSAAVEAEEYSRQVKRGTATSTSTVAEGSSNSSSSALPTRKRRHDDADGNSACAVTSAATAALLSANVDEHYLRTRQMDALLSELAPKVRKYCTIYFVDTREVTAFNELYELGHDRDPFAVMFFYRNRHIRVDVGTGNNNKINFFAFEDLYDFLPIVDAAYKAGRQGRSIASCDRKFSTVALRR | soluble
YNVLENEELRFQLTIQKEQIEFQRNKYEQLGAAYKNIRSFMHDTKKHLFYIENCVTEKKYDDIIPYSKEIMHDLESRYCTINTGNLVIDAFVSNLLLQTKAQGITLHTNLKFDKATIPVNDYHLTIILGNLLDNALNACRGQIGANIKVAVRTVDGTFTIHVANTYVIADPDKAPDDFEKIDFIHGYGLKNVKDSAEACGGFCVIHHENDVYSATVIIPILNP | not soluble
AQDMVSPPPPIADEPLTVNTGIYLIECYSLDDKAETFKVNAFLSLSWKDRRLAFDPVRSGVRVKTYEPEAIWIPEIRFVNVENARDADVVDISVSPDGTVQYLERFSARVLSPLDGRRTESDSQTLHIYLIVRSVDTRNIVLAVDLEKVGKNDDVFLTGWDIESFTAVVKPANFALEDRLESKLDYQLRISRQGGHHHHHH | soluble
RSKYNAKKVVIDNIKFDSKAEAAYYQQLKLLKMSGEVVSFDLQPEFVLQESFRKNGKLYRAIKYKADFLVRYSDGHEELIDIKGMLTKEFRIKQKLFELRYMQSIKCLKLKGRNFVEV | not soluble
MGSDKIHHHHHHMFEAFGDMSLDLLRAFEVAARLRSFTAAAIELGTIQPAVSQQIKRLEEQLATRLFDRIYRGIELTEAGEILFSHVQAGLQSIDSGLIAITEQQQHEVLQVATDFAFAAYWLMPRLHRFHKLNPDVDVSLVTSERTHSMLRADIDVTVLFGDGRFKQGESRWLFSEEVFPVCSPLLIADRQTPLPNDALRDFPLLHLRGDSINNWFDWSGVFRALDIPQAPAPGQLRFDNYTLLIQAAIGGQGIAIGWKHLVDDLLDQGLLCRPIAGAAISGHGYYVVLPQRKRRVQIVQQFMDWLASEQALSGVSLAGRPLPSIAV | not soluble
